The values that follow come from patent US20260234247A1 (published 2026).

Test [1] addresses T1, Biotinylated LILRB1 (UniProt Q8NHL6 24-458, limits assumed, biotinylated (sites not given)). Briefly: epitope binning ELISA, coated 1 ug/ml; competitor LK-RB1-9 at 20 ug/ml. Background: In an ELISA, binding on a coated surface is turned into a signal by an enzyme label.
The target in test [2] is T1, Biotinylated LILRB1. Put plainly: epitope binning ELISA, coated 1 ug/ml; competitor LK-RB1-16 at 20 ug/ml.
Experimental: (§1) Binding epitope of a subset of anti-LILRB1 and anti-LILRB2 antibodies was analyzed by epitope binning ELISA. Briefly, a panel of testing antibodies were coated onto ELISA plate. 50 ul/well Biotinylated LILRB1 or LILRB2 and 50 ul/well of competing antibodies were added to the coated plate and incubated at 37° C. for 1 hour. After Streptavidin-HRP (1:5000) incubation and TMB development, the plates were read at 450 nm using Molecular device spectra max plus384.
The target in the next test is T2, human LILRB1 (human, UniProt Q8NHL6 24-458, limits assumed).
T2 construct: also called hLILRB1
Briefly: Octet off-rate ranking.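 Also: antibody dissociation rate constants against cynomolgus LILRB2 plus human LILRB1, LILRB2, LILRA1 and LILRA2, measured on an Octet instrument to rank binding.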

Test [3] addresses T1, Biotinylated LILRB1. Briefly: epitope binning ELISA, coated 1 ug/ml; competitor LK-RB1-12 at 20 ug/ml.
Experimental: as §1
Test [4] addresses T1, Biotinylated LILRB1. Briefly: epitope binning ELISA, coated 1 ug/ml; competitor 15G8 at 20 ug/ml.
Experimental: as §1
For test [5], the target named is T1, Biotinylated LILRB1. Put plainly: epitope binning ELISA, coated 1 ug/ml; competitor LK-RB1-33 at 20 ug/ml.
Experimental: as §1
The target of test [6] is T1, Biotinylated LILRB1. Briefly: epitope binning ELISA, coated 1 ug/ml; competitor LK-RB1-47 at 20 ug/ml.
Experimental: as §1
In test [7] the target is T1, Biotinylated LILRB1. Put plainly: epitope binning ELISA, coated 1 ug/ml; competitor LK-RB1-31 at 20 ug/ml.
Experimental: as §1
Test [8] deals with T1, Biotinylated LILRB1. Put plainly: epitope binning ELISA, coated 1 ug/ml; competitor hz73D1.v1 at 20 ug/ml.
Experimental: as §1
Test [9] deals with T3, Biotinylated LILRB2 (UniProt Q8N423 22-460, limits assumed, biotinylated (sites not given)).
T3 construct: also called biotinylated-LILRB2 protein
Briefly: epitope binning ELISA; coated antibody 1 ug/ml, biotinylated LILRB2; competitor hz73D1.v1 at 20 ug/ml.

For test [10], the target named is T3, Biotinylated LILRB2. Put plainly: epitope binning ELISA; coated antibody 1 ug/ml, biotinylated LILRB2; competitor LK-RB2-14 at 20 ug/ml.
Experimental: as §1
Test [11] concerns the target T3, Biotinylated LILRB2. Briefly: epitope binning ELISA; coated antibody 1 ug/ml, biotinylated LILRB2; competitor LK-RB2-15 at 20 ug/ml.
Experimental: as §1
Test [12] addresses T3, Biotinylated LILRB2. Briefly: epitope binning ELISA; coated antibody 1 ug/ml, biotinylated LILRB2; competitor J19.h1 at 20 ug/ml.
Experimental: as §1
The target of test [13] is T3, Biotinylated LILRB2. Briefly: epitope binning ELISA; coated antibody 1 ug/ml, biotinylated LILRB2; competitor LK-RB2-24 at 20 ug/ml.
Experimental: as §1
For test [14], the target named is T3, Biotinylated LILRB2. Briefly: epitope binning ELISA; coated antibody 1 ug/ml, biotinylated LILRB2; competitor LK-RB2-2 at 20 ug/ml.
Experimental: as §1
For test [15], the target named is T3, Biotinylated LILRB2. Briefly: epitope binning ELISA; coated antibody 1 ug/ml, biotinylated LILRB2; competitor LK-RB2-3 at 20 ug/ml.
Experimental: as §1
For test [16], the target named is T4, Rhesus LILRB1 (F7H3G7) on CHOK1 cells (rhesus macaque).
T4 construct: whole, on cells; also called CHOK1-Rhesus LILRB1 (F7H3G7)
Put plainly: flow cytometry on CHOK1-rhesus LILRB1 (F7H3G7) cells. Background: In flow cytometry, cells or beads pass a laser one at a time.

T3 sequence (Q8N423 22-460 limits assumed): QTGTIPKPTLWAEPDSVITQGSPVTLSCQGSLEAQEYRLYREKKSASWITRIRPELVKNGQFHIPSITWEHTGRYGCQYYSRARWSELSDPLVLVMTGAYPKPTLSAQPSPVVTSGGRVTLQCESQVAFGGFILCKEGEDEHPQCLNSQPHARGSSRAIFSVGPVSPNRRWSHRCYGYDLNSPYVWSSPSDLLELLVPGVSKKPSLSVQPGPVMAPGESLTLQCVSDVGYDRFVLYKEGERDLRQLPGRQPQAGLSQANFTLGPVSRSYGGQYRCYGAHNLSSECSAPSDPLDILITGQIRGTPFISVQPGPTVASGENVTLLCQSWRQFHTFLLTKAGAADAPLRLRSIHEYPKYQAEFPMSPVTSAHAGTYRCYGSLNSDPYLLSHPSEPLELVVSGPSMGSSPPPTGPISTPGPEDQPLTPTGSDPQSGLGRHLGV
T1 sequence (Q8NHL6 24-458 limits assumed): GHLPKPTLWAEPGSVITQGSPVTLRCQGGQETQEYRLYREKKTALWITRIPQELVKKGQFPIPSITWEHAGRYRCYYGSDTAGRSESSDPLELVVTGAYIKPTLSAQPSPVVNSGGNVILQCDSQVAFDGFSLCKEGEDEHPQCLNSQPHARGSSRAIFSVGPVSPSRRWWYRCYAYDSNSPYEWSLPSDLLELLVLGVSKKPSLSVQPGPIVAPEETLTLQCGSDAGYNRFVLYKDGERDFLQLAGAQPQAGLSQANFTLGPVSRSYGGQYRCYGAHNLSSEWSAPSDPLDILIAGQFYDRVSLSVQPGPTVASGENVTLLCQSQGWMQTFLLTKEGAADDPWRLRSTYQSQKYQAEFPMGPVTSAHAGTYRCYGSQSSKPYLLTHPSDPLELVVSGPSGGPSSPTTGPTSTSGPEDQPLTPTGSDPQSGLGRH
T2 sequence (Q8NHL6 24-458 limits assumed): as above
Text for human LILRB1: Binding affinity of anti-LILRB1 and anti-LILRB2 antibodies against human LILRB1, LILRB2, LILRA1, LILRA2 and cynomolgus LILRB2 was ranked by measuring dissociation rate constant (Kdis) using the Octet system.

B1: LK-RB1-16 (antibody, human IgG4 S228P, kappa, V domains shown)
VH: QVQLKESGPGLVAPSQSLSITCTVSGFSLISNAISWVRQPPGKGLEWLGVIWGDGNTIYHSALRSRLTISKDNSKSQVFLKLNSLQIDDTATYYCAKANWDGYYFDYWGQGTTLTVSS
VL: DIQMNQSPSSLSASLGDTITITCHASQSVDFWLNWYQQKPGNIPKLLISKASNLHTGVPSRFSGSGSGTTFTLTISSLQPEDIATYYCQQGQSYPLTFGSGTKLEIKR
B1: the Inhibition % in the test with Biotinylated LILRB1 [1] is 0.98%; with Biotinylated LILRB1 [2], 42.9%; with Biotinylated LILRB1 [3] it was 12.5%; with Biotinylated LILRB1 [4], 0.37%; in the test with Biotinylated LILRB1 [5] it was -0.04%; with Biotinylated LILRB1 [6], 2.23%. Besides, the Inhibition % is 3.39% with Biotinylated LILRB1 [7] and 1.48% with Biotinylated LILRB1 [8]. In the test with human LILRB1, the dissociation rate constant (koff) – broadly, the first-order rate constant of dissociation – is 5.92e-05 s⁻¹.

B2: LK-RB1-31 (antibody, human IgG4 S228P, kappa, V domains shown)
VH: QVQLKESGPGLVAPSQSLSITCTVSGFSLTSYGVSWVRQPPGKGLEWLGIIWGDGSTNYHSALKSRLSISKDNSKSQVFLKLNSLQTEDTATYYCAKPNWDYYAMDYWGQGTSVTVSS
VL: DIQMTQTTSSLSASLGDRVTISCRASQDISNYLNWYLQKPDGTVKLLIYYTSRLHSGVPSRFSGSGSGTDYSLTISNLEQEDIATYFCQQGITLPCTFGGGTKLEIKR
As to B2, the Inhibition % with Biotinylated LILRB1 [1] was 10.5%; in the test with Biotinylated LILRB1 [2], 75.7%; in the test with Biotinylated LILRB1 [3], 87.4%; in the test with Biotinylated LILRB1 [4], -1.73%; in the test with Biotinylated LILRB1 [5] it was 1.14%; in the test with Biotinylated LILRB1 [6], 5.86%. Also, the Inhibition % worked out at 64.4% in the test with Biotinylated LILRB1 [7] and 54.1% in the test with Biotinylated LILRB1 [8]. The molecule also displayed an off-rate (koff) in the test with human LILRB1 of 6.77e-05 s⁻¹.

B3: LK-RB1-47 (antibody, human IgG4 S228P, kappa, V domains shown)
VH: QIQLVQSGPELKKPGETVKISCKASGYTFTTYGMSWVKQAPGKGLKWMGWINTYSGVPTYTDDFKGRFAFSVETSASTAYLQINNLKNEDTATYFCARRERDFYGNIFFPYWGQGSLVTVSA
VL: DIQMTQTTSSLSASLGDRVTISCRASQDISNYLNWYQQKPDGTVKLLIYYTSRIHSGVPSRFSGSGSGTDFSLTISNLDQEDIATYFCQQGHTLPWTFGGGTKVEIKR
As to B3, the Inhibition % with Biotinylated LILRB1 [1] turned out to be 31.8%; in the test with Biotinylated LILRB1 [2], 1.24%; with Biotinylated LILRB1 [3], 82.1%; with Biotinylated LILRB1 [4] it was 5.8%; with Biotinylated LILRB1 [5] it was 21.7%; with Biotinylated LILRB1 [6], 89.8%. Further, the Inhibition % with Biotinylated LILRB1 [7] is 0.59%; with Biotinylated LILRB1 [8] it was 74.8%. Besides, the koff with human LILRB1 amounted to 0.000828 s⁻¹.

B4: LK-RB2-15 (antibody, human IgG4 S228P, kappa, V domains shown)
VH: QIQLVQSGPELKKPGETVKISCKASGYTFTTYGMSWVKQAPGKGLKWMGWINVYSGVPTYADDFKGRFAFSLEISASTAYLQINNLKDEDTATYFCARRKDYSGHCFDYWGQGTTLTVSS
VL: DIVLTQSPASLAVSLGQRATFSCRASESVDTYGISFMHWYQQKPGQPPKLLIYRASNLESGIPARFSGSGSRTDFTLTINPVETDDVATYYCQQSKKEPYTFGGGTKLEIKR
notes: Anti-LILRB2 antibody from mouse hybridoma
As for B4, the Inhibition % with Biotinylated LILRB2 [9] turned out to be 15.1%; with Biotinylated LILRB2 [10] it was 85.4%; in the test with Biotinylated LILRB2 [11] it was 94.3%; with Biotinylated LILRB2 [12], 8%; with Biotinylated LILRB2 [13] it was 96.8%; with Biotinylated LILRB2 [14], 47.1%. For the same molecule, in the test with Biotinylated LILRB2 [15], the Inhibition % was found to be 22.1%.

B5: LK-RB1-51 (antibody, human IgG4 S228P, kappa, V domains shown)
VH: QVQIQQSGAELVKPGASVKLSCKASGYTFTEFPIHWIKQRSGQGLEWIGWFYPGSDNMNYNEKFKDKATLTADKSSSTVYMELSRLTSEDSAVYFCARHENAYFYAMDYWGQGTSVTVSS
VL: ENVLTQSPAIMSASLGEKVTMSCRASSSVNYMYWYQQKSDASPKIWIYYTSNLAPGVPARFSGSGSGNSYSLTISSMEGEDAATYYCQQFTSSPFTFGTGTKLEIKR
notes: Anti-LILRB1 antibody
Turning to B5, in [16], the EC50 (in general, the midpoint of the concentration-response curve) is 26.6 µM.

B6: LK-RB1-54 (antibody, human IgG4 S228P, kappa, V domains shown)
VH: DVQLQESGPGLVKPSQSLSLTCSVTGYSITSGFYWNWIRQFPGNKLEWMGHISYDGTNNYNPSLKNRISITRDTSKNLFFLKLNSVTTEDTATFHCARGGYGGSYGFDYWGQGTTLTVSS
VL: ENVLTQSPAIMSASLGEKVTMSCRASSSVNYMYWYQQKSDASPKLWIYYTSNLAPGVPVRFSGSGSGNSYSLTISSMEGEDAATYYCQQFTSSPWTFGGGTKLEIKR
notes: Anti-LILRB1 antibody
Consider B6, for which the midpoint of the response in [16], the EC50, lay at 24.2 µM. The EC50 values of the last two molecules are within 1.5-fold of each other.

B7: LK-RB1-12 (antibody, human IgG4 S228P, kappa, V domains shown)
VH: QVQLQQSGTELVRPGSSVMISCKASGYAFSTYWMDWVKQRPGQGLEWIGQIYPGDGATNYNGKFKGKATLTADKSSITAYMHLSSLTSEDSAVYFCLRSRDYDGWFFDVWGAGTTVTVSS
VL: DIVMTQSHKFMSTSIGDRVSITCKASQDVSSAVAWYQQKPGQSPKLLIYWASTRHTGVPDRFTGSGSGTDYTLTFSSVQAEDLALYYCQQHYSTPWTFGGGTKLEIKR
In the case of B7, the Inhibition % was 84.5% with Biotinylated LILRB1 [1]; 88% in the test with Biotinylated LILRB1 [2]; 90.3% with Biotinylated LILRB1 [3]; -9.78% with Biotinylated LILRB1 [4]; 75.3% with Biotinylated LILRB1 [5]; 83.2% with Biotinylated LILRB1 [6]. Besides, the results for the Inhibition % in the test with Biotinylated LILRB1 [7] and with Biotinylated LILRB1 [8] were 83% and 77.3%, respectively. The same molecule showed a koff in the test with human LILRB1 of 0.00126 s⁻¹.

B8: LK-RB1-33 (antibody, human IgG4 S228P, kappa, V domains shown)
VH: QIQLVQSGPELKKPGDTVKISCKASGYTFTSYGMNWVKQAPGEGLKWMGWINTYSGVPTYGDDFKGRFAFSLETSASTAYLQINNLENEDTATYFCARRGRDSVVGHFDVWGTGTTVTVSS
VL: DIVMTQSHKFMSTSVGDRVSITCKASQDVNTAVAWYQQKPGQSPKLLIYWASTRHTGVPDRFTGSGSGTDFTLTISSVQAEDLALYYCQQHYTIPFTFGSGTRLEIKR
Turning to B8, the Inhibition % in the test with Biotinylated LILRB1 [1] stood at 94.8%; with Biotinylated LILRB1 [2], 3.49%; with Biotinylated LILRB1 [3], 68.8%; with Biotinylated LILRB1 [4], 72.2%; with Biotinylated LILRB1 [5] it was 96%; with Biotinylated LILRB1 [6] it was 96.5%. Besides, the Inhibition % with Biotinylated LILRB1 [7] was determined as 4.35%; with Biotinylated LILRB1 [8] it was 88.7%. Besides, the dissociation rate constant (koff) with human LILRB1 was found to be 0.000155 s⁻¹.

B9: LK-RB2-14 (antibody, human IgG4 S228P, kappa, V domains shown)
VH: QVQLKQSGPGLVQPSQSLSITCTVSGFSLTSYGVHWVRQSPGKGLEWLGVIWRGGSTDYNAAFMSRLSITKDNSKSQVFFKMNSLQADDTAIYYCAKNEGDSTVVAWYFDVWGTGTTVTVSS
VL: DIQMTQTTSSLSASLGDRVTISCSASQGISNYLNWFQQKPDGTVKLLIYYTSSLHSGVPSRFSGSGSGTDYSLTISNLEPEDIATYYCQQYSKLPLTFGAGTKLELKR
notes: as for B4
With B9, the Inhibition % with Biotinylated LILRB2 [9] was 92.7%; with Biotinylated LILRB2 [10], 90.6%; in the test with Biotinylated LILRB2 [11], 91.1%; in the test with Biotinylated LILRB2 [12], 77.4%; in the test with Biotinylated LILRB2 [13], 94.3%; with Biotinylated LILRB2 [14], 97.7%. For the same molecule, the Inhibition % with Biotinylated LILRB2 [15] came to 29.8%.

B10: LK-RB1-58 (antibody, human IgG4 S228P, kappa, V domains shown)
VH: QVQLKQSGPGLVQPSQSLSITCTVSGFSLTTYGVHWVRQSPGKGLEWLGVIWRGGSTDYNAAFMSRLSITKDNSKSQVFFRMNSLQADDTARYYCAKNSLYYGSSWYFDVWGTGTTVTVSS
VL: QIVLSQSPAILSASPGEKVTMTCRASSSVSFMHWYQQKPGSSPKPWIYATSNLASGVPARFSGSGSGTSYSLTISRVEAEDAATYYCQQWSSNPPTFGGGTKLEIKR
notes: Anti-LILRB1 antibody
As to B10, in test [16], it took 17.9 µM to reach a half-maximal effect (EC50).

B11: hz73D1.v1 (antibody, human IgG4 S228P, kappa, V domains shown)
VH: QVQLVQSGAEVKKPGASVKVSCKASGYTFTDYYINWVRQAPGQGLEWMGNVNPNDGGTTYNQKFKGRVTMTTDTSTSTAYMELRSLRSDDTAVYYCARREIYFYGTIYYYAMDYWGQGTLVTVSS
VL: DIQLTQSPSFLSASVGDRVTITCRASESVDYYGNSFMYWYQQKPGKAPKLLIYFASNLESGVPSRFSGSGSGTEFTLTISSLQPEDFATYYCQQNNEDPWTFGGGTKVEIKR
As to B11, the EC50 in [16] turned out to be 0.00125 µM.
